# US20210330692, “CCR7 APTAMERS AND USES THEREOF” (CITY OF HOPE, published 2021)
# B1: C-6 (ssRNA)
# RNA: GGGAGGACGAUGCGGUCCAUCGUCUCUUAUCGUCUCUUGUCGCGCCAGACGACUCGCCCGA
# Biological target: CCR7 (UniProt P32248 P32248:25-378)
# Assay: EMSA; + in gel shift assay
# Sequence of CCR7 (P32248 25-378, one chain of several): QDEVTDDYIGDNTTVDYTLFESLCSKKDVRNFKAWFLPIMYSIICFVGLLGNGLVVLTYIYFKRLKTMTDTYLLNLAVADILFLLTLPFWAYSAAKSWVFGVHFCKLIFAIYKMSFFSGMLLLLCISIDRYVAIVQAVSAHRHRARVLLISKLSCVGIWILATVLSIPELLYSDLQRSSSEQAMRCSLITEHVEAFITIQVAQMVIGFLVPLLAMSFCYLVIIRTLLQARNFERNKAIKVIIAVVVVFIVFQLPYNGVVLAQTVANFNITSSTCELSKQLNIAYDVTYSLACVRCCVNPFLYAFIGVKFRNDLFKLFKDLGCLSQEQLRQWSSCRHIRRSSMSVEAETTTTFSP
binder,measurement,value
B1,binding result,binds
